# Assay results published in the supplement of paper PMC10567573.
# B1: SNF8 addS (peptide)
# chain: LPALFTDLYSQEITAEEAREALPS
# B2: PSMB5 addS (peptide)
# chain: DGWIRVSSDNVADLHEKYSGSTPS
# B3: PSMB5 addH (peptide)
# chain: DGWIRVSSDNVADLHEKYSGSTPH
# B4: BEX2 addS (peptide)
# chain: HSLRAVSTDPPHHDHHDEFCLMPS
# B5: POLD2 addS (peptide)
# chain: CQPISFSGFGAEDDDLGGLGLGPS
# B6: SNF8 addH (peptide)
# chain: LPALFTDLYSQEITAEEAREALPH
# B7: TRPA1 addH (peptide)
# chain: EQRNSRWNTVLRAVKAKTHHLEPH
# B8: POLD2 addH (peptide)
# chain: CQPISFSGFGAEDDDLGGLGLGPH
# B9: TRPA1 addS (peptide)
# chain: EQRNSRWNTVLRAVKAKTHHLEPS
# Test: protein stability index of a GFP-peptide fusion (GPS, HEK-293T) (PSI 1-6); higher = more stable
# Conditions: c terminus: native
# 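Note: lentivirally expressed fusion library, cells FACS-sorted into six equal-sized GFP/DsRed ratio bins, PSI computed from sequencing read fractions per bin weighted by bin number.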
protein,measurement,setting,value
B1,protein stability index,parent: NP_009172.2,4.4
B2,protein stability index,parent: NP_002788.1,3.98
B3,protein stability index,parent: NP_002788.1,3.83
B4,protein stability index,parent: NP_116010.1,3.84
B5,protein stability index,parent: NP_006221.1,2.6
B6,protein stability index,parent: NP_009172.2,4.88
B7,protein stability index,parent: NP_015628.1,5.05
B8,protein stability index,parent: NP_006221.1,2.24
B9,protein stability index,parent: NP_015628.1,4.6
